EP4628097A1 (Innovent Biologics (Suzhou) Co., Ltd., dated 2025)

Assays:
human VEGF165 [1] = biological target: T1, human VEGF165 (human, UniProt P15692-4 27-191); assay: ELISA, relative binding activity; IEX04-012 about 40 mg/mL in F9, 40 C, 2 weeks
T1 construct: all are put under this molecule; also called VEGF A; VEGFA

human Ang2 [2] = biological target: T2, human Ang2 (human, UniProt O15123 19-496, limits assumed); assay: as above
T2 construct: Bought proteins; also called hAng2-biotin; Ang2-Bio (Sino)
T2 sequence (looked up): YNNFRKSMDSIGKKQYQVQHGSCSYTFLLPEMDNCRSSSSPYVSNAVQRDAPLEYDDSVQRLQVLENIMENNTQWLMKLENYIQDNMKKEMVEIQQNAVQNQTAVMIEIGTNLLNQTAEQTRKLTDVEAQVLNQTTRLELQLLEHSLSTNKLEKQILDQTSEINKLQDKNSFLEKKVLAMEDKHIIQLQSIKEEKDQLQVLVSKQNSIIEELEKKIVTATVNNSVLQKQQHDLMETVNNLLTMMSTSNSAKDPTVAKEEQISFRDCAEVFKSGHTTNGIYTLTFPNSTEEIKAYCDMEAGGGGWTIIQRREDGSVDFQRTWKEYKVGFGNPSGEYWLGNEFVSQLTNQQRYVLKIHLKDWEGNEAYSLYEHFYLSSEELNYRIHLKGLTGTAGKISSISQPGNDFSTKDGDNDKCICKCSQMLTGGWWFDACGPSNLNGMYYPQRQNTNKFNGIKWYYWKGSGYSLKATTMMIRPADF

human VEGF165 [3] = biological target: T1, human VEGF165; assay: ELISA, relative binding activity; 120 mg/mL formula, 2-8 C, 6M
human Ang2 [4] = biological target: T2, human Ang2; assay: as above
human VEGF165 [5] = biological target: T1, human VEGF165; assay: ELISA, relative binding activity; IEX04-012 about 40 mg/mL in F6, 40 C, 0 weeks
human Ang2 [6] = biological target: T2, human Ang2; assay: as above
human VEGF165 [7] = biological target: T1, human VEGF165; assay: ELISA, relative binding activity; final formula 40 mg/mL, 40 C, 4W
human Ang2 [8] = biological target: T2, human Ang2; assay: as above
human VEGF165 [9] = biological target: T1, human VEGF165; assay: ELISA, relative binding activity; IEX04-012 about 40 mg/mL in F5, 40 C, 0 weeks
human Ang2 [10] = biological target: T2, human Ang2; assay: as above
human VEGF165 [11] = biological target: T1, human VEGF165; assay: ELISA, relative binding activity; final formula 40 mg/mL, 25 C, 3M
human Ang2 [12] = biological target: T2, human Ang2; assay: as above
human VEGF165 [13] = biological target: T1, human VEGF165; assay: ELISA, relative binding activity; 120 mg/mL formula, 2-8 C, 12M
human Ang2 [14] = biological target: T2, human Ang2; assay: as above
human VEGF165 [15] = biological target: T1, human VEGF165; assay: ELISA, relative binding activity; final formula 40 mg/mL, 2-8 C, 12M
human Ang2 [16] = biological target: T2, human Ang2; assay: as above
human VEGF165 [17] = biological target: T1, human VEGF165; assay: ELISA, relative binding activity; 120 mg/mL formula, 25 C, 3M
human Ang2 [18] = biological target: T2, human Ang2; assay: as above
human VEGF165 [19] = biological target: T1, human VEGF165; assay: ELISA, relative binding activity; IEX04-012 about 40 mg/mL in F5, 40 C, 1 week
human Ang2 [20] = biological target: T2, human Ang2; assay: as above
human VEGF165 [21] = biological target: T1, human VEGF165; assay: ELISA, relative binding activity; IEX04-012 about 40 mg/mL in F8, 40 C, 2 weeks
human Ang2 [22] = biological target: T2, human Ang2; assay: as above
human VEGF165 [23] = biological target: T1, human VEGF165; assay: ELISA, relative binding activity; final formula 40 mg/mL, 40 C, 2W
human Ang2 [24] = biological target: T2, human Ang2; assay: as above
human VEGF165 [25] = biological target: T1, human VEGF165; assay: ELISA, relative binding activity; IEX04-012 about 40 mg/mL in F2, 40 C, 1 week
human Ang2 [26] = biological target: T2, human Ang2; assay: as above

T1 sequence (P15692 other isoform, or with tags, fused parts or gaps limits assumed): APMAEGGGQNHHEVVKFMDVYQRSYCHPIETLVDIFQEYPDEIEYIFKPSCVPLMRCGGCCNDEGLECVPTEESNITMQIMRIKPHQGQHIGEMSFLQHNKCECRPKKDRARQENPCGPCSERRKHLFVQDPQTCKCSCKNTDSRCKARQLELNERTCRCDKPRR

- Relative binding Activity to VEGF (ELISA, %) (human VEGF165 [1]): 99%
- Relative binding Activity to Ang2 (ELISA, %) (human Ang2 [2]): 90%
- Relative binding Activity to VEGF A (ELISA, %) (human VEGF165 [3]): 99%
- Relative binding Activity to Ang2 (ELISA, %) (human Ang2 [4]): 96%
- Relative binding Activity to VEGF (ELISA, %) (human VEGF165 [5]): 100%
- Relative binding Activity to Ang2 (ELISA, %) (human Ang2 [6]): 100%
- Relative binding Activity to VEGF A (ELISA, %) (human VEGF165 [7]): 78%
- Relative binding Activity to Ang2 (ELISA, %) (human Ang2 [8]): 74%
- Relative binding Activity to VEGF (ELISA, %) (human VEGF165 [9]): 100%
- Relative binding Activity to Ang2 (ELISA, %) (human Ang2 [10]): 100%
- Relative binding Activity to VEGF A (ELISA, %) (human VEGF165 [11]): 96%
- Relative binding Activity to Ang2 (ELISA, %) (human Ang2 [12]): 85%
- Relative binding Activity to VEGF A (ELISA, %) (human VEGF165 [13]): 104%
- Relative binding Activity to Ang2 (ELISA, %) (human Ang2 [14]): 104%
- Relative binding Activity to VEGF A (ELISA, %) (human VEGF165 [15]): 100%
- Relative binding Activity to Ang2 (ELISA, %) (human Ang2 [16]): 96%
- Relative binding Activity to VEGF A (ELISA, %) (human VEGF165 [17]): 106%
- Relative binding Activity to Ang2 (ELISA, %) (human Ang2 [18]): 75%
- Relative binding Activity to VEGF (ELISA, %) (human VEGF165 [19]): 98%
- Relative binding Activity to Ang2 (ELISA, %) (human Ang2 [20]): 82%
- Relative binding Activity to VEGF (ELISA, %) (human VEGF165 [21]): 102%
- Relative binding Activity to Ang2 (ELISA, %) (human Ang2 [22]): 91%
- Relative binding Activity to VEGF A (ELISA, %) (human VEGF165 [23]): 91%
- Relative binding Activity to Ang2 (ELISA, %) (human Ang2 [24]): 86%
- Relative binding Activity to VEGF (ELISA, %) (human VEGF165 [25]): 98%
- Relative binding Activity to Ang2 (ELISA, %) (human Ang2 [26]): 99%
B1: IEX04-012 (bispecific antibody)
chain: DIQLTQSPSSLSASVGDRVTITCSASQDISNYLNWYQQKPGKAPKVLIYFTSSLHSGVPSRFSGSGSGTDFTLTISSLQPEDFATYYCQQYSTVPWTFGCGTKVEIKGGGGSGGGGSGGGGSGGGGSEVQLVESGGGLVQPGGSLRLSCAASGYDFTHYGMNWVRQAPGKCLEWVGWINTYTGEPTYAADFKRRFTFSLDTSKSTAYLQMNSLRAEDTAVYYCAKYPYYYGTSHWYFDVWGQGTLVTVSSGGGGSGGGGSGGGGSEVQLLESGGGLVQPGGSLRLSCAASGFALDYYAIGWFRQAPGKGLEGVSCISSGEGSTYYADSVKGRFTISRDNSKNTVYLQMNSLRAEDTAVYYCATDSRGDDVACEGLRRNEYDYWGQGTLVTVSS
